Experimental data: paper PMC11775607 (Nucleic Acids Research, 2025)

Target: recombinant WBSCR16-GST fusion protein (mouse, UniProt Q9CYF5 35-461)
Assay: SPR

- Kd: 37 nM
B1: recombinant MRPP3-His fusion protein (230–583 amino acids of MRPP3) (domain or fragment)
chain: LLLLEDIKKVITPSKKNYNDCIQGALLHQDVNTAWNLYQELLGHDIVPMLETLKAFFDFGKDIKDDNYSNKLLDILSYLRNNQLYPGESFAHSIKTWFESVPGKQWKGQFTTVRKSGQCSGCGKTIESIQLSPEEYECLKGKIMRDVIDGGDQYRKTTPQELKRFENFIKSRPPFDVVIDGLNVAKMFPKVRESQLLLNVVSQLAKRNLRLLVLGRKHMLRRSSQWSRDEMEEVQKQASCFFADDISEDDPFLLYATLHSGNHCRFITRDLMRDHKACLPDAKTQRLFFKWQQGHQLAIVNRFPGSKLTFQRILSYDTVVQTTGDSWHIPYDEDLVERCSCEVPTKWLCLHQKT
